Laboratory results taken from patent US20210388105A1 (ELPISCIENCE SUZHOU BIOPHARMA, published 2021).
Changes are numbered by the printed parent chain. Values belong to the binder of their own block, whether it stands above or below them.

Columns and labels:
[1] = molecular target: T1, human CD39 (full length, on cells) (human, UniProt P49961 1-510); experiment: FACS, SK-MEL-28 cells
T1 construct: Recombinant on CHOK1-hCD39 cells or natural on SK-MEL-28, SK-MEL-5 and MOLP-8 cells; the cell line is named under assay; also called hCD39; ENTPD1
T1 sequence: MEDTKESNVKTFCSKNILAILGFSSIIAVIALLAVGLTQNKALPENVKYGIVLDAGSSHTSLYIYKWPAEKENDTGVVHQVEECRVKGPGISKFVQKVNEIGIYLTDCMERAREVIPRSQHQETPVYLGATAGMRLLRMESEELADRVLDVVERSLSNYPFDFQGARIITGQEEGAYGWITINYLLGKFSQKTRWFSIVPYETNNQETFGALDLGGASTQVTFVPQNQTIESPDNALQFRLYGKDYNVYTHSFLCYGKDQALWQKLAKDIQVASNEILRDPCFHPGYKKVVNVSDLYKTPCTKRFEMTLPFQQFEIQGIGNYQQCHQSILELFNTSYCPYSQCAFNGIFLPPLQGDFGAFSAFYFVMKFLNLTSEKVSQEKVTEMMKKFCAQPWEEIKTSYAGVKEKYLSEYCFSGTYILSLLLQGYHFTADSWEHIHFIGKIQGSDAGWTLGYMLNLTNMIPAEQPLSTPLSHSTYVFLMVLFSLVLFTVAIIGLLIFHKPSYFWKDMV
Method: (§1) FACS were used to determine binding of the antibodies to cell lines expressing CD39 naturally (SK-MEL-28) or recombinantly (CHOK1-hCD39, CHOK1-cynoCD39, and CHOK1-mCD39), or with cells lacking CD39 expression (CHOK1-blank) as a negative control.
Similarly, human CD39 expressing cells SK-MEL-5, SK-MEL-28 or MOLP-8, were incubated with a gradient concentration of anti-CD39 antibodies for 30 minutes at 4° C. Cells were washed 3 times using FACS buffer and next incubated with fluorescence labelled secondary antibody (goat-anti-mouse IgG or goat anti-human IgG) for 30 minutes at 4° C. Cells were washed 3 times and then re-suspended in FACS buffer and analyzed by flow cytometry analysis on BD Celesta. Data plotted and analyzed using GraphPad Prism 8.02.

[2] = molecular target: T1, human CD39 (full length, on cells); experiment: cell-based or functional assay
[3] = molecular target: T1, human CD39 (full length, on cells); experiment: FACS, CHOK1-hCD39 cells
Text: as §1
(§2) CHOK1-hCD39, CHOK1-cCD39, CHOK1-mCD39 and CHOK1-blank cells were maintained in culture medium according to ATCC procedure. Cells were collected and re-suspended in blocking buffer at a density of 3×10⁶ cells/ml. Cells were transferred to 96 well FACS plates at 100 μl/well (3×10⁵ cells/well), the plates were centrifuged and washed twice with FACS buffer (PBS, 1% FBS, 0.05% Tween-20). 4-folds serial dilution of anti-CD39 antibodies were prepared in FACS buffer starting from 30 μg/ml. Reference antibody 9-8B and mouse/human control IgG were used as positive and negative controls, respectively. Cells were re-suspended in 100 μL/well diluted antibodies, and the plates were incubated at 4° C. for 60 min. […] The plates were washed with FACS buffer, and cells were re-suspended in 100 μL/well of PBS. Cells were then analyzed with FACSVerse™ and mean fluorescence intensity were determined. Full binding curves were generated on the CD39 expressing cells by testing a range of antibody concentrations. Apparent affinity was determined for each antibody using Prism software.

[4] = molecular target: T2, mouse CD39 (full length, on CHOK1-mCD39 cells) (mouse, UniProt P55772 1-510); experiment: FACS, CHOK1-mCD39 cells
T2 construct: whole, on cells
T2 sequence (looked up): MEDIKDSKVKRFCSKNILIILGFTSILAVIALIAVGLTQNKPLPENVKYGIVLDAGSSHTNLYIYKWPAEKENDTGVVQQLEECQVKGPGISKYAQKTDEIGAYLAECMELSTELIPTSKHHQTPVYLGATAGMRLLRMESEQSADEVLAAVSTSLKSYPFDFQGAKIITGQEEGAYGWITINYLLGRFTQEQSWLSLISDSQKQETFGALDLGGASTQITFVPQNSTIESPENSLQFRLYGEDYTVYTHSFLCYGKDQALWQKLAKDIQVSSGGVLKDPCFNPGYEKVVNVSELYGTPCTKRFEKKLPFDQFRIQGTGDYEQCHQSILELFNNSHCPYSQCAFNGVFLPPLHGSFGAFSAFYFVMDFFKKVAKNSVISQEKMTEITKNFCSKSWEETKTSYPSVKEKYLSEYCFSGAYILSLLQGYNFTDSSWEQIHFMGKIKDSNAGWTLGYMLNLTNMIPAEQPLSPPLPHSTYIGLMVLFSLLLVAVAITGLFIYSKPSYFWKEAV
Text: as §1, §2

[5] = molecular target: T3, cynomolgus CD39 (full length, on CHOK1-cynoCD39 cells) (cynomolgus monkey, UniProt A0A7N9DGH8 1-510); experiment: FACS, CHOK1-cynoCD39 cells
T3 construct: whole, on cells; also called cCD39
T3 sequence: T1 sequence with V47I, F94Y, V221I, I230T, I329V, K368N, A391S, F489V, T490I
Text: as §1, §2

[6] = molecular target: T1, human CD39 (full length, on cells); experiment: FACS competition on CHOK1-hCD39; competitor 9-8B-Alexa488
Method: (§3) Anti-CD39 antibodies were labeled using Alex488 labeling kit and were diluted in a series of concentrations, before mixing with CHOK1-hCD39 cells to test binding EC₅₀using FACS. The non-labeled antibodies were tested for their blocking efficacy to the labelled ones. Briefly, mononuclear CHOK1-hCD39 cells were prepared to 2×10⁶/ml and plated into 96 well at 50 μl/well, then mixed with antibodies gradients to final volume at 100 μl, and then equal volume of Alex488 label antibodies were added at two folds EC80 concentration. 96 well plates were incubated at 4° C. for 1 hour, and spun down and washed 3 times with 200 μl FACS buffer. The FACS analysis was performed on FACScelesta machine and data was analyzed by Flowjo software. The blocking percentages were calculated and those having above 80% competition rate were allocated into one epitope group, compared with the non-competing well (Alex488 labeled antibody only).
(§4) Based on the competition results, the 4 anti-CD39 hybridoma antibodies (mAb14, mAb19, mAb21, mAb23) can be grouped into 4 different epitope groups, as shown in Table 11.

[7] = molecular target: T1, human CD39 (full length, on cells); experiment: FACS competition on CHOK1-hCD39; competitor mAb14-Alexa488
Method: as §3, §4

[8] = molecular target: T1, human CD39 (full length, on cells); experiment: FACS competition on CHOK1-hCD39; competitor mAb19-Alexa488
Method: as §3, §4

[9] = molecular target: T1, human CD39 (full length, on cells); experiment: FACS competition on CHOK1-hCD39; competitor mAb21-Alexa488
Method: as §3, §4

[10] = molecular target: T1, human CD39 (full length, on cells); experiment: FACS competition on CHOK1-hCD39; competitor mAb23-Alexa488
Method: as §3, §4

EC50 [1]: 90 nM | SK-MEL-28 cell based ATPase inhibition % at 10 nM [2]: 70% | EC50 [3]: 6.7 nM | EC50 [5]: 11 nM | blocking percentage [6]: 20% | blocking percentage [7]: 24% | blocking percentage [8]: 98% | blocking percentage [9]: 90% | blocking percentage [10]: 97%
B1: mAb21 (antibody, V domains shown)
VH: EVKLEKSGGGLVQPGGSMKLSCVASGFTFSNYWMNWVRQSPEKGLEWVAQIRLNPDNYATHFAESVKGRFTISRDDSKNSVYLQMNSLRAEDTGIYYCTEHGTRGFAYWGQGTLVTVSE
VL: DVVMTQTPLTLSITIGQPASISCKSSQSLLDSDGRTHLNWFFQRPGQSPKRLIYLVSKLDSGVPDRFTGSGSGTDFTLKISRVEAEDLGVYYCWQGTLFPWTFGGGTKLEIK
notes: mouse hybridoma antibody
binding result [4]: no binding (tested: 30 µg/ml highest concentration)

EC50 [1]: 1.6 nM | SK-MEL-28 cell based ATPase inhibition % at 10 nM [2]: 75% | EC50 [3]: 1.7 nM | EC50 [5]: 2.3 nM | blocking percentage [6]: 98% | blocking percentage [7]: 86% | blocking percentage [8]: 98% | blocking percentage [9]: 93% | blocking percentage [10]: 100%
B2: mAb23 (antibody, V domains shown)
VH: EVQLQQSGAELLRPGASVKLSCTASGYNLKDTFLHWVKQRPEQGLEWIGRIDPANGNIKYDPKFQGKATLTADTSSNTAYLQLISLTSEDTAVYYCANSPYYYGSGYRIFDVWGAGTTVTVSS
VL: QIVLTQSPAIMSASPGEKVTITCSAFSSVNYMHWYQQKPGTSPKLLIYTTSNLASGVPTRFSGSGSGTSYSLTISRMEAEDAATYYCQQRSTYPFTFGSGTKLEIQ
notes: mouse hybridoma antibody
binding result [4]: no binding (tested: 30 µg/ml highest concentration)
